Results published in US20260216326A1 (PROMETHEUS BIOSCIENCES, published 2026).

T1: human TL1A (Fitzgerald #30R-AT070) (human, UniProt O95150 72-251, limits assumed)
T1 construct: Coated on the ELISA plate at 1 ug/mL; also called TNFSF15
T1 sequence (looked up): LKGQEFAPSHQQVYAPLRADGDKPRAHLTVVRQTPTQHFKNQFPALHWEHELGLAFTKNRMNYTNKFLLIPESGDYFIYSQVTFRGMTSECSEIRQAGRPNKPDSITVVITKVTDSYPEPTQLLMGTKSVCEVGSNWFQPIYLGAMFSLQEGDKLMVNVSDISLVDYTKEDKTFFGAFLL

B1: A130 (antibody, human IgG1, V domains shown)
VH: QVQLVQSGAEVKKPGASVKVSCKASGFDIQDTYMHWVRQAPGQGLEWMGRIEPASGHIKYDPKFQVRVTMTRDTSTSTVYMELSSLRSEDTAVYYCARSGGLPDWWGQGTTVTVSS
VL: EIVLTQSPGTLSLSPGERATLSCRASSSVSYMYWYQQKPGQAPRPWIYATSNLASGIPDRFSGSGSGTDFTLTISRLEPEDFAVYYCQQWEGNPRTFGGGTKLEIK
notes: human IgG1/kappa (pFuse vectors), culture supernatant
B2: A135 (antibody, human IgG1, V domains shown)
VH: QVQLVQSGAEVKKPGASVKVSCKASGFDIQDTYMHWVRQAPGQGLEWMGRIEPASGHIKYDPKFQGRVTMTRDTSTSTAYMELSSLRSEDTAVYYCARSGGLPDWWGQGTTVTVSS
VL: EIVLTQSPGTLSLSPGERATLSCRASSSVSYMYWYQQKPGQAPRPLIYATSNLASGIPDRFSGSGSGTDFTLTISRLEPEDFAVYYCQQWKGNPRTFGGGTKLEIK
notes: as for B1
B3: A142 (antibody, human IgG1, V domains shown)
VH: QVQLVQSGAEVKKPGASVKVSCKASGFDIQDTYMHWVRQRPGQGLEWMGRIDPASGHTKYDPKFQVRVTITRDTSTSTAYLELSSLRSEDTAVYYCARSGGLPDVWGQGTTVTVSS
VL: EIVLTQSPGTLSLSPGERATLSCRASSSVSYMYWYQQKPGQAPRLLIYATSNLASGIPDRFSGSGSGTDFTLTISRLEPEDFAVYYCQQWEGNPRTFGGGTKLEIK
notes: as for B1
B4: A147 (antibody, human IgG1, V domains shown)
VH: QVQLVQSGAEVKKPGASVKVSCKASGFDIQDTYMHWVKQRPGQGLEWMGRIEPASGHIKYDPKFQGRVTMTRDTSTSTVYMELSSLRSEDTAVYYCARSGGLPDWWGQGTTVTVSS
VL: EIVLTQSPGTLSLSPGERATLSCRASSSVSYMYWYQQKPGQAPRPLIYATSNLASGIPDRFSGSGSGTDFTLTISRLEPEDFAVYYCQQWEGNPRTFGGGTKLEIK
notes: as for B1
B5: A146 (antibody, human IgG1, V domains shown)
VH: QVQLVQSGAEVKKPGASVKVSCKASGFDIQDTYMHWVKQAPGQGLEWMGRIEPASGHIKYDPKFQGRVTMTRDTSTSTVYMELSSLRSEDTAVYYCARSGGLPDWWGQGTTVTVSS
VL: EIVLTQSPGTLSLSPGERATLSCRASSSVSYMYWYQQKPGQAPRPLIYATSNLASGIPDRFSGSGSGTDFTLTISRLEPEDFAVYYCQQWEGNPRTFGGGTKLEIK
notes: as for B1
B6: A133 (antibody, human IgG1, V domains shown)
VH: QVQLVQSGAEVKKPGASVKVSCKASGFDIQDTYMHWVRQAPGQGLEWMGRIEPASGHIKYDPKFQVRVTMTRDTSTSTVYMELSSLRSEDTAVYYCARSGGLPDWWGQGTTVTVSS
VL: EIVLTQSPGTLSLSPGERATLSCRASSSVSYMYWYQQKPGQAPRPLIYATSNLASGIPDRFSGSGSGTDFTLTISRLEPEDFAVYYCQQWKGNPRTFGGGTKLEIK
notes: as for B1
B7: A134 (antibody, human IgG1, V domains shown)
VH: QVQLVQSGAEVKKPGASVKVSCKASGFDIQDTYMHWVRQAPGQGLEWMGRIEPASGHIKYDPKFQVRATMTRDTSTSTVYMELSSLRSEDTAVYYCARSGGLPDWWGQGTTVTVSS
VL: EIVLTQSPGTLSLSPGERATLSCRASSSVSYMYWYQQKPGQAPRPLIYATSNLASGIPDRFSGSGSGTDFTLTISRLEPEDFAVYYCQQWKGNPRTFGGGTKLEIK
notes: as for B1
B8: A132 (antibody, human IgG1, V domains shown)
VH: QVQLVQSGAEVKKPGASVKVSCKASGFDIQDTYMHWVRQAPGQGLEWMGRIEPASGHIKYDPKFQGRATMTRDTSTSTVYMELSSLRSEDTAVYYCARSGGLPDWWGQGTTVTVSS
VL: EIVLTQSPGTLSLSPGERATLSCRASSSVSYMYWYQQKPGQAPRPLIYATSNLASGIPDRFSGSGSGTDFTLTISRLEPEDFAVYYCQQWKGNPRTFGGGTKLEIK
notes: as for B1
B9: A140 (antibody, human IgG1, V domains shown)
VH: QVQLVQSGAEVKKPGASVKVSCKASGFDIQDTYMHWVRQRPGQGLEWMGRIDPASGHTKYDPKFQVRVTITTDTSTSTAYLELSSLRSEDTAVYYCARSGGLPDVWGQGTTVTVSS
VL: EIVLTQSPGTLSLSPGERATLSCRASSSVSYMYWYQQKPGQAPRLLIYATSNLASGIPDRFSGSGSGTDFTLTISRLEPEDFAVYYCQQWEGNPRTFGGGTKLEIK
notes: as for B1
B10: A136 (antibody, human IgG1, V domains shown)
VH: QVQLVQSGAEVKKPGASVKVSCKASGFDIQDTYMHWVKQAPGQGLEWMGRIEPASGHIKYDPKFQGRVTMTRDTSTSTVYMELSSLRSEDTAVYYCARSGGLPDWWGQGTTVTVSS
VL: EIVLTQSPGTLSLSPGERATLSCRASSSVSYMYWYQQKPGQAPRPLIYATSNLASGIPDRFSGSGSGTDFTLTISRLEPEDFAVYYCQQWKGNPRTFGGGTKLEIK
notes: as for B1
B11: A143 (antibody, human IgG1, V domains shown)
VH: QVQLVQSGAEVKKPGASVKVSCKASGFDIQDTYMHWVRQAPGQGLEWMGRIEPASGHIKYDPKFQGRVTMTRDTSTSTVYMELSSLRSEDTAVYYCARSGGLPDWWGQGTTVTVSS
VL: EIVLTQSPGTLSLSPGERATLSCRASSSVSYMYWYQQKPGQAPRLLIYATSNLASGIPDRFSGSGSGTDFTLTISRLEPEDFAVYYCQQWEGNPRTFGGGTKLEIK
notes: as for B1
B12: A138 (antibody, human IgG1, V domains shown)
VH: QVQLVQSGAEVKKPGASVKVSCKASGFDIQDTYMHWVRQAPGQGLEWMGRIEPASGHIKYDPKFQVRATMTRDTSTSTVYMELSSLRSEDTAVYYCARSGGLPDWWGQGTTVTVSS
VL: EIVLTQSPGTLSLSPGERATLSCRASSSVSYMYWYQQKPGQAPRLLIYATSNLASGIPDRFSGSGSGTDFTLTISRLEPEDFAVYYCQQWSRNPRTFGGGTKLEIK
notes: as for B1
B13: A141 (antibody, human IgG1, V domains shown)
VH: QVQLVQSGAEVKKPGASVKVSCKASGFDIQDTYMHWVRQRPGQGLEWMGRIDPASGHTKYDPKFQVRVTITRDTSTSTAYLELSSLRSEDTAVYYCARSGGLPDVWGQGTTVTVSS
VL: EIVLTQSPGTLSLSPGERATLSCRASSSVSYMYWYQQKPGQAPRLLIYATSNLASGIPDRFSGSGSGTDFTLTISRLEPEDFAVYYCQQWSRNPRTFGGGTKLEIK
notes: as for B1
B14: A145 (antibody, human IgG1, V domains shown)
VH: QVQLVQSGAEVKKPGASVKVSCKASGFDIQDTYMHWVRQAPGQGLEWMGRIEPASGHIKYDPKFQGRVTMTRDTSTSTAYMELSSLRSEDTAVYYCARSGGLPDWWGQGTTVTVSS
VL: EIVLTQSPGTLSLSPGERATLSCRASSSVSYMYWYQQKPGQAPRPLIYATSNLASGIPDRFSGSGSGTDFTLTISRLEPEDFAVYYCQQWEGNPRTFGGGTKLEIK
notes: as for B1
B15: A139 (antibody, human IgG1, V domains shown)
VH: QVQLVQSGAEVKKPGASVKVSCKASGFDIQDTYMHWVRQRPGQGLEWMGRIDPASGHTKYDPKFQVRVTITTDTSTSTAYLELSSLRSEDTAVYYCARSGGLPDVWGQGTTVTVSS
VL: EIVLTQSPGTLSLSPGERATLSCRASSSVSYMYWYQQKPGQAPRLLIYATSNLASGIPDRFSGSGSGTDFTLTISRLEPEDFAVYYCQQWSRNPRTFGGGTKLEIK
notes: as for B1
B16: A137 (antibody, human IgG1, V domains shown)
VH: QVQLVQSGAEVKKPGASVKVSCKASGFDIQDTYMHWVRQAPGQGLEWMGRIEPASGHIKYDPKFQVRVTMTRDTSTSTVYMELSSLRSEDTAVYYCARSGGLPDWWGQGTTVTVSS
VL: EIVLTQSPGTLSLSPGERATLSCRASSSVSYMYWYQQKPGQAPRLLIYATSNLASGIPDRFSGSGSGTDFTLTISRLEPEDFAVYYCQQWSRNPRTFGGGTKLEIK
notes: as for B1

target: T1, human TL1A (Fitzgerald #30R-AT070); assay: ELISA titration, coated human TL1A, culture supernatant

B1 and B2 are within 1.5-fold of each other in Kd: 75 pM for the first, 56 pM for the second.

Going from B3 to B4, the Kd falls from 126 pM to 63 pM (2-fold).

B5 and B6 are within 1.5-fold of each other in Kd: 65 pM for the first, 58 pM for the second.

B7 and B8 are within 1.5-fold of each other in Kd: 55 pM for the first, 62 pM for the second.

B9 and B10 are within 1.5-fold of each other in Kd: 73 pM for the first, 53 pM for the second.

B11 and B12 are within 1.5-fold of each other in Kd: 85 pM for the first, 69 pM for the second.

Going from B13 to B14, the Kd falls from 108 pM to 70 pM (1.5-fold). The second binds more tightly here.

B15 and B16 are within 1.5-fold of each other in Kd: 74 pM for the first, 50 pM for the second.
